In PMC10231232, “Expanding the Physiological Role of Aryl-Alcohol Flavooxidases as Quinone Reductases” (Applied and Environmental Microbiology, 2023):
Where two headings read alike, the source gives them in different places.

Tests used:
PoAAO [1] = system: T1, PoAAO; assay: steady-state kinetics, absorbance of aldehyde formed; type: biochemical, Pleurotus ostreatus; conditions: apparent, air-saturated (0.256 mM O2), 50 mM NaPi pH 6.0, 25°C
T1 construct: gene AAO; 60,903 Da
Text: steady-state kinetics, absorbance of aldehyde formed on PoAAO | The three enzymes oxidized the whole spectrum of alcohols although with different catalytic efficiencies.

PeAAO = biological target: T2, PeAAO (Pleurotus eryngii, UniProt O94219); assay: bi-substrate steady-state kinetics, anaerobic, BQ reduction at […] nm; type: biochemical; conditions: electron acceptor, p-methoxybenzyl alcohol as co-substrate (varied), ping-pong fit, 50 mM NaPi pH 6.0, 25°C
T2 construct: gene aao; 61,847 Da
T2 sequence (O94219 28-593): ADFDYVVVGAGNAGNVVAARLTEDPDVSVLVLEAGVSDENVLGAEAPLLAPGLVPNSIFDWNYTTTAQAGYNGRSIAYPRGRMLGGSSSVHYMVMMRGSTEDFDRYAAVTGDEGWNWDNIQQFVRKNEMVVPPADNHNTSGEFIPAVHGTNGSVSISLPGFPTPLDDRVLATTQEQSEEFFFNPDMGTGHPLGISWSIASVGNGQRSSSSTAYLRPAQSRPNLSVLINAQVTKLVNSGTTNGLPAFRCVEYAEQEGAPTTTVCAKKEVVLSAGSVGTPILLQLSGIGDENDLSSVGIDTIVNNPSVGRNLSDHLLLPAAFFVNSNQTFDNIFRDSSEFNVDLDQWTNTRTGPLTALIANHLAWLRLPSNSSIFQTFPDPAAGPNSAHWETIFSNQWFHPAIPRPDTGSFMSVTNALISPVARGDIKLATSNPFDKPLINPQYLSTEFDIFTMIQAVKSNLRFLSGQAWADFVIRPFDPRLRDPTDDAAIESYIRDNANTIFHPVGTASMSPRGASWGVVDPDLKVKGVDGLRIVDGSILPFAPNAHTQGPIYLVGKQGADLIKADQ

BaAAO = biological target: T3, BaAAO (Bjerkandera adusta, UniProt A0ABF7PQ87); assay: as above; type: biochemical; conditions: electron acceptor, p-methoxybenzyl alcohol as co-substrate (varied), ping-pong fit, 50 mM NaPi pH 6.0, 25°C
T3 construct: 62,610 Da; one cysteine
T3 sequence (A0ABF7PQ87 1-580): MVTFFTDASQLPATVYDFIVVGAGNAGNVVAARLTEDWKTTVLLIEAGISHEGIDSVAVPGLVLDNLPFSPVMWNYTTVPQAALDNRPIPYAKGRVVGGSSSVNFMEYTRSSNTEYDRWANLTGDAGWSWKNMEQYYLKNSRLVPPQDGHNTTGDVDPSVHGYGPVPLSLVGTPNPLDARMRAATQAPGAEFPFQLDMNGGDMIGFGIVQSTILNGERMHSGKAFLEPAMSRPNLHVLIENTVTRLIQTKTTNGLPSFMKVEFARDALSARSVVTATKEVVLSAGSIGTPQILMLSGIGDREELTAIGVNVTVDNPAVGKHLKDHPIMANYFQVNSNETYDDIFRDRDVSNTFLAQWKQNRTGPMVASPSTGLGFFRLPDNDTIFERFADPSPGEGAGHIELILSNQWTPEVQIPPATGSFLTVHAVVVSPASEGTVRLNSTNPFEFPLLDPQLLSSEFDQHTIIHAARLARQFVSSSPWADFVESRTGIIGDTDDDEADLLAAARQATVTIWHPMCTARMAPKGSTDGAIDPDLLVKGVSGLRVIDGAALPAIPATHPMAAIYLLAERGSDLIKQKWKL

PoAAO [2] = system: T4, PoAAO; conditions: read-out: Km(acceptor); electron acceptor; p-methoxybenzyl alcohol as co-substrate (varied), ping-pong fit, anaerobic, 50 mM NaPi pH 6.0, 25°C
T4 construct: gene AAO

[3] = substrate: CC=CC=CCO; assay: steady-state kinetics, absorbance of aldehyde formed; type: biochemical, Pleurotus eryngii; conditions: apparent, air-saturated (0.256 mM O2), 50 mM NaPi pH 6.0, 25°C
Text: (§1) steady-state kinetics, absorbance of aldehyde formed on PeAAO | The three enzymes oxidized the whole spectrum of alcohols although with different catalytic efficiencies.

[4] = substrate: COc1ccc(CO)cc1Cl; assay: as above; type: biochemical, Pleurotus eryngii; conditions: apparent, air-saturated (0.256 mM O2), 50 mM NaPi pH 6.0, 25°C
Text: as §1

[5] = substrate: OCc1cccc(Cl)c1; assay: purified protein, by the assay type; design: steady-state kinetics, spectrophotometric alcohol oxidation to aldehyde, air-saturated 50 mM NaPi pH 6.0, 25 C; conditions: pH 6.0
Procedure: Steady-state kinetic parameters were measured spectrophotometrically by monitoring the oxidation of the different alcohols to the corresponding aldehydes—Δε285, 16,950 M^−1 cm^−1 for [compound left out]; Δε240, 5,923 M^−1 cm^−1 for 3-chloro-benzyl alcohol; Δε309, 8,332 M^−1 cm^−1 for vanillyl alcohol; Δε307, 7,383 M^−1 cm^−1 for [compound left out]; Δε280, 30,140 M^−1 cm^−1 for 2,4-hexadien-1-ol from ([15]); Δε295, 15,000 M^−1 cm^−1 for 3-chloro-p-mehxoybenzyl alcohol from ([38]); and Δε310, 9,300 M^−1 cm^−1 for [compound left out] from Guillén et al. ([59])—in air-saturated (0.256 mM O2 concentration) 50 mM NaPi, pH 6.0, at 25°C. Steady-state kinetic analyses and statistical fits were performed using the SigmaPlot program. Apparent kinetic parameters in atmospheric oxygen were determined by fitting initial reaction rates (v0) at different alcohol concentrations to the Michaelis-Menten equation (equation 1). (1) v0/e = kcat[A]/Km + [A] The steady-state curves and resulting kinetic parameters for oxidation of different alcohols under atmospheric conditions with O2 as an electron acceptor were compared for PoAAO, BaAAO, and PeAAO (Fig. S4 and Table S1). The three enzymes oxidized the whole spectrum of alcohols although with different catalytic efficiencies.

[6] = substrate: OCc1cccc(Cl)c1; assay: steady-state kinetics, absorbance of aldehyde formed; type: biochemical, Bjerkandera adusta; conditions: apparent, air-saturated (0.256 mM O2), 50 mM NaPi pH 6.0, 25°C
Text: (§2) steady-state kinetics, absorbance of aldehyde formed on BaAAO | The three enzymes oxidized the whole spectrum of alcohols although with different catalytic efficiencies.

[7] = substrate: CC=CC=CCO; assay: as above; type: biochemical, Bjerkandera adusta; conditions: apparent, air-saturated (0.256 mM O2), 50 mM NaPi pH 6.0, 25°C
Text: as §2

[8] = substrate: COc1cc(CO)ccc1O; assay: as above; type: biochemical, Bjerkandera adusta; conditions: apparent, air-saturated (0.256 mM O2), 50 mM NaPi pH 6.0, 25°C
Text: as §2

[9] = substrate: COc1ccc(CO)cc1Cl; assay: as above; type: biochemical, Bjerkandera adusta; conditions: apparent, air-saturated (0.256 mM O2), 50 mM NaPi pH 6.0, 25°C
Text: as §2

Molecule: COc1ccc(CO)cc1Cl [3-chloro-p-methoxybenzyl alcohol]
- Km (PoAAO [1]): 9 ± 1 µM

Molecule: COc1ccc(CO)cc1O [isovanillyl alcohol]
- Km (PoAAO [1]): 713 ± 44 µM

Molecule: CC=CC=CCO [2,4-hexadien-1-ol]
- Km (PoAAO [1]): 86 ± 4 µM

Molecule: OCc1cccc(Cl)c1 [3-chlorobenzyl alcohol]
- Km (PoAAO [1]): 80 ± 6 µM

Molecule: COc1ccc(CO)cc1OC [veratryl alcohol]
- Km (PoAAO [1]): 212 ± 11 µM

Molecule: O=C1C=CC(=O)C=C1 [BQ, p-benzoquinone]
- Km (PeAAO): 48 ± 6 µM
- Km (BaAAO): 70 ± 9 µM
- Km (PoAAO [2]): 33 ± 4 µM

B1: PeAAO (Pleurotus eryngii) (protein)
chain: T2 sequence (O94219 28-593)
notes: 61,847 Da
- Km [3]: 94 ± 4 µM
- kcat [3]: 119 ± 1 s⁻¹
- Km [4]: 9 ± 1 µM
- kcat [4]: 34 ± 1 s⁻¹
- Km [5]: 107 ± 2 µM
- kcat [5]: 22 ± 1 s⁻¹
- kcat/Km [5]: 203 ± 3 mM^-1s^- //

B2: BaAAO (Bjerkandera adusta) (protein)
chain: T3 sequence (A0ABF7PQ87 1-580)
notes: 62,610 Da; one cysteine
- Km [6]: 37 ± 5 µM
- kcat [6]: 13 ± 1 s⁻¹
- Km [7]: 854 ± 32 µM
- kcat [7]: 42 ± 1 s⁻¹
- Km [8]: 1960 ± 100 µM
- kcat [8]: 38 ± 1 s⁻¹
- Km [9]: 49 ± 4 µM
- kcat [9]: 37 ± 1 s⁻¹
